Consider two molecules from patent US20190194324A1 (published 2019).

Assay [1] has as its target T1, α-syn-biotin monomer (mouse, UniProt O55042 1-140). Put plainly: cell surface binding (SH-SY5Y); LAG3* (no Triton).
In assay [2] the target is T1, α-syn-biotin monomer. Put plainly: cell surface binding (SH-SY5Y).
The target in assay [3] is α-syn-biotin PFF (biotin-labelled α-synuclein pre-formed fibrils) (mouse, UniProt O55042 1-140). Put plainly: cell surface binding (SH-SY5Y).

B1: LAG3 overexpressed in transfected cells (SH-SY5Y; HEK293FT) (receptor)
chain: LQPGAEVPVVWAQEGAPAQLPCSPTIPLQDLSLLRRAGVTWQHQPDSGPPAAAPGHPLAPGPHPAAPSSWGPRPRRYTVLSVGPGGLRSGRLPLQPRVQLDERGRQRGDFSLWLRPARRADAGEYRAAVHLRDRALSCRLRLRLGQASMTASPPGSLRASDWVILNCSFSRPDRPASVHWFRNRGQGRVPVRESPHHHLAESFLFLPQVSPMDSGPWGCILTYRDGFNVSIMYNLTVLGLEPPTPLTVYAGAGSRVGLPCRLPAGVGTRSFLTAKWTPPGGGPDLLVTGDNGDFTLRLEDVSQAQAGTYTCHIHLQEQQLNATVTLAIITVTPKSFGSPGSLGKLLCEVTPVSGQERFVWSSLDTPSQRSFSGPWLEAQEAQLLSQPWQCQLYQGERLLGAAVYFTELSSPGAQRSGRAPGALPAGHLLLFLILGVLSLLLLVTGAFGFHLWRRQWRPRRFSALEQGIHPPQAQSKIEELEQEPEPEPEPEPEPEPEPEPEQL
Turning to B1, the Kd with α-syn-biotin monomer [1] is above 3000 nM.

B2: LAG3 (protein)
chain: MWEAQFLGLLFLQPLWVAPVKPLQPGAEVPVVWAQEGAPAQLPCSPTIPLQDLSLLRRAGVTWQHQPDSGPPAAAPGHPLAPGPHPAAPSSWGPRPRRYTVLSVGPGGLRSGRLPLQPRVQLDERGRQRGDFSLWLRPARRADAGEYRAAVHLRDRALSCRLRLRLGQASMTASPPGSLRASDWVILNCSFSRPDRPASVHWFRNRGQGRVPVRESPHHHLAESFLFLPQVSPMDSGPWGCILTYRDGFNVSIMYNLTVLGLEPPTPLTVYAGAGSRVGLPCRLPAGVGTRSFLTAKWTPPGGGPDLLVTGDNGDFTLRLEDVSQAQAGTYTCHIHLQEQQLNATVTLAIITVTPKSFGSPGSLGKLLCEVTPVSGQERFVWSSLDTPSQRSFSGPWLEAQEAQLLSQPWQCQLYQGERLLGAAVYFTELSSPGAQRSGRAPGALPAGHLLLFLILGVLSLLLLVTGAFGFHLWRRQWRPRRFSALEQGIHPPQAQSKIEELEQEPEPEPEPEPEPEPEPEPEQL
For B2, the Kd was above 3000 nM with α-syn-biotin monomer [2] and 77 nM in assay [3].

What is called Kd is the equilibrium constant for the complex coming apart. Lower therefore signals tighter binding.
